Drawing on patent US20150344570A1 (published 2015), this text covers He/Con_2aR for 25 molecules.

The chains are these.
T1: FcγRIIa R (FcγRIIa, allotype with Arg at position 131), extracellular domain with C-terminal His tag (human, UniProt P12318 34-217)
T1 construct: extracellular domain; also called FcγRIIa R type; 2aR
T1 sequence (looked up): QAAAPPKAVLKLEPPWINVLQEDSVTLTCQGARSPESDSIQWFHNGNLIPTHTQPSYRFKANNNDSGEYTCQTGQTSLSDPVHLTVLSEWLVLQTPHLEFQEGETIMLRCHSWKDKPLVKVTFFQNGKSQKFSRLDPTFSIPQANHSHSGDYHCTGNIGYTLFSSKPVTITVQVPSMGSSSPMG

B1: GpH7-A5/GpH7-B3 variant S337_18N/GpL16-k0 (antibody, human IgG1, kappa)
heavy 1: not shown
heavy 2: not shown
light: DIVMTQSPLSLPVTPGEPASISCQASESLVHSNRNTYLHWYLQKPGQSPQLLIYKVSNRFSGVPDRFSGSGSGTDFTLKISRVEAEDVGVYYCSQNTHVPPTFGQGTKVEIERTVAAPSVFIFPPSDEQLKSGTASVVCLLNNFYPREAKVQWKVDNALQSGNSQESVTEQDSKDSTYSLSSTLTLSKADYEKHKVYACEVTHQGLSSPVTKSFNRGEC
notes: also called He Ab
B2: GpH7-A5/GpH7-B3 variant Y296_04F/GpL16-k0 (antibody, human IgG1, kappa)
heavy 1: not shown
heavy 2: not shown
light: B1 light
notes: also called He Ab
B3: GpH7-A5/GpH7-B3 variant T335_10E/GpL16-k0 (antibody, human IgG1, kappa)
heavy 1: not shown
heavy 2: not shown
light: B1 light
notes: also called He Ab
B4: GpH7-A5/GpH7-B3 variant Y296_07I/GpL16-k0 (antibody, human IgG1, kappa)
heavy 1: not shown
heavy 2: not shown
light: B1 light
notes: also called He Ab
B5: GpH7-A5/GpH7-B3 variant T335_15Y/GpL16-k0 (antibody, human IgG1, kappa)
heavy 1: not shown
heavy 2: not shown
light: B1 light
notes: also called He Ab
B6: GpH7-A5/GpH7-B3 variant Y296_06M/GpL16-k0 (antibody, human IgG1, kappa)
heavy 1: not shown
heavy 2: not shown
light: B1 light
notes: also called He Ab
B7: GpH7-A5/GpH7-B3 variant Y296_18N/GpL16-k0 (antibody, human IgG1, kappa)
heavy 1: not shown
heavy 2: not shown
light: B1 light
notes: also called He Ab
B8: GpH7-A5/GpH7-B3 variant T335_13S/GpL16-k0 (antibody, human IgG1, kappa)
heavy 1: not shown
heavy 2: not shown
light: B1 light
notes: also called He Ab
B9: GpH7-A5/GpH7-B3 variant Y296_14T/GpL16-k0 (antibody, human IgG1, kappa)
heavy 1: not shown
heavy 2: not shown
light: B1 light
notes: also called He Ab
B10: GpH7-A5/GpH7-B3 variant Y300_18N/GpL16-k0 (antibody, human IgG1, kappa)
heavy 1: not shown
heavy 2: not shown
light: B1 light
notes: also called He Ab
B11: GpH7-A5/GpH7-B3 variant T335_18N/GpL16-k0 (antibody, human IgG1, kappa)
heavy 1: not shown
heavy 2: not shown
light: B1 light
notes: also called He Ab
B12: GpH7-A5/GpH7-B3 variant T335_07I/GpL16-k0 (antibody, human IgG1, kappa)
heavy 1: not shown
heavy 2: not shown
light: B1 light
notes: also called He Ab
B13: GpH7-A5/GpH7-B3 variant S337_20W/GpL16-k0 (antibody, human IgG1, kappa)
heavy 1: not shown
heavy 2: not shown
light: B1 light
notes: also called He Ab
B14: GpH7-A5/GpH7-B3 variant Y296_13S/GpL16-k0 (antibody, human IgG1, kappa)
heavy 1: not shown
heavy 2: not shown
light: B1 light
notes: also called He Ab
B15: GpH7-A5/GpH7-B3 variant Y296_16H/GpL16-k0 (antibody, human IgG1, kappa)
heavy 1: not shown
heavy 2: not shown
light: B1 light
notes: also called He Ab
B16: GpH7-A5/GpH7-B3 variant V266_06M/GpL16-k0 (antibody, human IgG1, kappa)
heavy 1: not shown
heavy 2: not shown
light: B1 light
notes: also called He Ab
B17: GpH7-A5/GpH7-B3 variant T335_12R/GpL16-k0 (antibody, human IgG1, kappa)
heavy 1: not shown
heavy 2: not shown
light: B1 light
notes: also called He Ab
B18: GpH7-A5/GpH7-B3 variant T335_16H/GpL16-k0 (antibody, human IgG1, kappa)
heavy 1: not shown
heavy 2: not shown
light: B1 light
notes: also called He Ab
B19: GpH7-A5/GpH7-B3 variant T335_01G/GpL16-k0 (antibody, human IgG1, kappa)
heavy 1: not shown
heavy 2: not shown
light: B1 light
notes: also called He Ab
B20: GpH7-A5/GpH7-B3 variant Y296_20W/GpL16-k0 (antibody, human IgG1, kappa)
heavy 1: not shown
heavy 2: not shown
light: B1 light
notes: also called He Ab
B21: GpH7-A5/GpH7-B3 variant T335_02A/GpL16-k0 (antibody, human IgG1, kappa)
heavy 1: not shown
heavy 2: not shown
light: B1 light
notes: also called He Ab
B22: GpH7-A5/GpH7-B3 variant Y296_09D/GpL16-k0 (antibody, human IgG1, kappa)
heavy 1: not shown
heavy 2: not shown
light: B1 light
notes: also called He Ab
B23: GpH7-A5/GpH7-B3 variant T335_20W/GpL16-k0 (antibody, human IgG1, kappa)
heavy 1: not shown
heavy 2: not shown
light: B1 light
notes: also called He Ab
B24: GpH7-A5/GpH7-B3 variant S337_19Q/GpL16-k0 (antibody, human IgG1, kappa)
heavy 1: not shown
heavy 2: not shown
light: B1 light
notes: also called He Ab
B25: GpH7-A5/GpH7-B3 variant Y296_10E/GpL16-k0 (antibody, human IgG1, kappa)
heavy 1: not shown
heavy 2: not shown
light: B1 light
notes: also called He Ab

The experiment concerns the target T1, FcγRIIa R (FcγRIIa, allotype with Arg …). The experiment in a line: SPR (Biacore), antibody captured on antigen peptide chip, FcγR as analyte; relative binding. In general terms: SPR reads the build-up and loss of mass on a sensor chip optically.
Take B1: the He/Con_2aR was 107 % of GpH7-A5/GpH7-B3/GpL16-k0 (=100).

In the case of B2, the He/Con_2aR is 109 % of GpH7-A5/GpH7-B3/GpL16-k0 (=100).

On to B3, for which the He/Con_2aR was 111 % of GpH7-A5/GpH7-B3/GpL16-k0 (=100).

For the molecule B4, the He/Con_2aR was 101 % of GpH7-A5/GpH7-B3/GpL16-k0 (=100).

Consider B5, for which the He/Con_2aR was 111 % of GpH7-A5/GpH7-B3/GpL16-k0 (=100).

Turning to B6, the He/Con_2aR is 101 % of GpH7-A5/GpH7-B3/GpL16-k0 (=100).

For B7, the He/Con_2aR is 104 % of GpH7-A5/GpH7-B3/GpL16-k0 (=100).

For the molecule B8, the He/Con_2aR is 110 % of GpH7-A5/GpH7-B3/GpL16-k0 (=100).

In the case of B9, the He/Con_2aR was 103 % of GpH7-A5/GpH7-B3/GpL16-k0 (=100).

With B10, the He/Con_2aR is 100 % of GpH7-A5/GpH7-B3/GpL16-k0 (=100).

As for B11, the He/Con_2aR is 106 % of GpH7-A5/GpH7-B3/GpL16-k0 (=100).

With B12, the He/Con_2aR was 109 % of GpH7-A5/GpH7-B3/GpL16-k0 (=100).

For B13, the He/Con_2aR is 110 % of GpH7-A5/GpH7-B3/GpL16-k0 (=100).

As to B14, the He/Con_2aR is 102 % of GpH7-A5/GpH7-B3/GpL16-k0 (=100).

For B15, the He/Con_2aR was 105 % of GpH7-A5/GpH7-B3/GpL16-k0 (=100).

Take B16: the He/Con_2aR was 150 % of GpH7-A5/GpH7-B3/GpL16-k0 (=100).

For the molecule B17, the He/Con_2aR was 100 % of GpH7-A5/GpH7-B3/GpL16-k0 (=100).

With B18, the He/Con_2aR was 108 % of GpH7-A5/GpH7-B3/GpL16-k0 (=100).

Regarding B19, the He/Con_2aR was 104 % of GpH7-A5/GpH7-B3/GpL16-k0 (=100).

On to B20, for which the He/Con_2aR is 110 % of GpH7-A5/GpH7-B3/GpL16-k0 (=100).

Turning to B21, the He/Con_2aR is 102 % of GpH7-A5/GpH7-B3/GpL16-k0 (=100).

For the molecule B22, the He/Con_2aR was 106 % of GpH7-A5/GpH7-B3/GpL16-k0 (=100).

Turning to B23, the He/Con_2aR was 109 % of GpH7-A5/GpH7-B3/GpL16-k0 (=100).

With B24, the He/Con_2aR was 106 % of GpH7-A5/GpH7-B3/GpL16-k0 (=100).

As to B25, the He/Con_2aR was 103 % of GpH7-A5/GpH7-B3/GpL16-k0 (=100).
